The results in this text go back to patent publication US20070065446, “Anti-bambi antibody and diagnostic or remedy for colon cancer and liver cancer” (SCIMEDIA LTD., published 2007).

B1: TBE4 mutant (dsDNA)
DNA 1: CTGGAAATATAGAAAGCGGGCAGAAC
DNA 2: GTTCTGCCCGCTTTCTATATTTCCAG
B2: TBE3 mutant (dsDNA)
DNA 1: CTCTAAGTGTAGTTATATCTCTGAATG
DNA 2: CATTCAGAGATATAACTACACTTAGAG
B3: TBE5 mutant (dsDNA)
DNA 1: CTAAAAGTTCATGCAGTTAAATTTGGG
DNA 2: CCCAAATTTAACTGCATGAACTTTTAG
B4: TBE2 mutant (dsDNA)
DNA 1: CTCTGTGTCTAGTTAAATGTATCTCTG
DNA 2: CAGAGATACATTTAACTAGACACAGAG
B5: TBE1 mutant (dsDNA)
DNA 1: GCTGCAGAGGATTGATTAGCGGTAG
DNA 2: CTACCGCTAATCAATCCTCTGCAGC
B6: TBE5 (dsDNA)
DNA 1: CTAAAAGTTCATGCCTTTGAATTTGGG
DNA 2: CCCAAATTCAAAGGCATGAACTTTTAG
B7: TBE2 (dsDNA)
DNA 1: CTCTGTGTCTCTTTGAATGTATCTCTG
DNA 2: CAGAGATACATTCAAAGAGACACAGAG
B8: TBE1 (dsDNA)
DNA 1: GCTGCAGAGGCTTTGTTAGCGGTAG
DNA 2: CTACCGCTAACAAAGCCTCTGCAGC
B9: TBE3 (dsDNA)
DNA 1: CTCTAAGTGTCTTTGTATCTCTGAATG
DNA 2: CATTCAGAGATACAAAGACACTTAGAG
B10: TBE4 (dsDNA)
DNA 1: CTGGAAATATCAAAGGCGGGCAGAAC
DNA 2: GTTCTGCCCGCCTTTGATATTTCCAG

Chain of GST (P08515 whole entry, one chain of several): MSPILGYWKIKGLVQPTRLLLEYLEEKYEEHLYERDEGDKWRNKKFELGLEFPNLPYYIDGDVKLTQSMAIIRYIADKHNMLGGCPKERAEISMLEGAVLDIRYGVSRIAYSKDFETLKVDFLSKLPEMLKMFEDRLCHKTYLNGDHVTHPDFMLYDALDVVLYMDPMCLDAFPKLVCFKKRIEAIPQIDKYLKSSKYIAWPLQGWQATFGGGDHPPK

One series deals with T1, TCF4 (TCF7L2) residues 265-496, GST fusion (Homo sapiens, UniProt Q9NQB0-8 Q9NQB0-8:265-496). As to the kind of experiment: competition; mutant unlabeled competitor does not compete in EMSA. The settings on record: tags: N-terminal GST (pGEX-5X-1), E. coli DH5alpha. From the text: (§1) Five TCF-4 binding sequences on intron 1 were synthesized (TBE 1-5) and radioactively labeled, and shift assay was used to investigate whether they bound with GST-TCF.
T1 sequence (Q9NQB0 288-519, one chain of several): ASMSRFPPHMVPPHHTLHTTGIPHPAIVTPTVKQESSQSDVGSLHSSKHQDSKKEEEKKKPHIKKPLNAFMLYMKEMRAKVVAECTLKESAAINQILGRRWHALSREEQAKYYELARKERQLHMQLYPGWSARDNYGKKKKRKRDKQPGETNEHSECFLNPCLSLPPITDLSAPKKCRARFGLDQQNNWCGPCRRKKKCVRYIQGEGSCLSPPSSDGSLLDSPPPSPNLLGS
The oligonucleotide used in preparing the mutant hBAMBI-luciferase construct was used as the mutant competitive molecule.
On the technique in general: A gel shift assay detects complexes by their altered migration in electrophoresis.
Turning to B1, the binding result is reported as “no binding”. Same read-out and setting: with B2 the entry was “no binding”; with B3, “no binding”; with B4, “no binding”. Still for that read-out and setting: with B5 the entry was “no binding”.

A further series deals with T1, TCF4 (TCF7L2) residues 265-496, GST …. The series can be described thus: EMSA; competed by excess unlabeled TBE. The settings on record: tags: N-terminal GST (pGEX-5X-1), E. coli DH5alpha; label: radioactive.
Excerpt: as §1
B6: the binding result is “binds”. The same measure, in the same setting: with B7 the entry was “binds”; with B8, “binds”. For B9, the binding result was “binds”. On the same count and under the same terms, with B10 the entry was “binds”.

Another series has as its target GST (UniProt P08515 P08515:1-218). The series can be described thus: EMSA; GST control. The following applies: tags: pGEX-5X-1 (Pharmacia), E. coli DH5alpha; label: radioactive.
Excerpt: as §1
Take B6: the binding result is given as “no binding”. Regarding B7, the binding result is on record as “no binding”.

As for B8, the binding result is on record as “no binding”. The same measure, in the same setting: with B9 the entry was “no binding”. Still for that read-out and setting: the result for B10 reads “no binding”.
